Measured values: patent US7981602B2, “Photoproteins with enhanced bioluminescence and assays using the same” (AXXAM S.R.L., priority 2005, dated 2011)

B1: 12mutCly: mutant Clytin photoprotein 12mutCly (SEQ ID NO: 19), expressed in CHOK1 cells (protein)
chain: MADTASKYAVKLRPNFDNPKWVNRHKFMFNFLDINGDGKITLDEIVSKASDDICAKLEATPEQTKRHQVCVEAFFRGCGMEYGKEIAFPQFLDGWKQLATSELKKWARNEPTLIREWGDAVFDIFDKDGSGSISLDEWKAYGRISGICSSDEDAEKTFKHCDLDNSGKLDVDEMTRQHLGFWYTLDPNADGLYGNFVP
B2: 25N03b: mutant Clytin photoprotein from random mutagenesis, clone 25N03b (sequence ID no 16) (protein)
chain: MADTASKYAVKLRPNFDNPKWVNRHKFMFNFLDINGDGKITLDEIVSKASDDICAKLGATPEQTKRHQDAVEAFFKKIGMDYGKEVEFPAFVDGWKELANYDLKLWSQNKKSLIRDWGEAVFDIFDKDGSGSISLDEWKAYCRISGICSSDEDAEKTFKHCDLDNSGKLDVDEMTRQHLGFWYTLDPNADGLYGNFVP

Columns and labels:
[1] = system: CHOK1/mito12mutCly cell line; assay: ATP-stimulated luminescence in CHOK1/mito12mutCly cell line (CCD camera); format: cell-based; conditions: ATP stimulation, 2.5 or 5 μM coelenterazine
Description: Clone Selection Process: • CHO-K1 were transfected with pcDNA3Neo^−/MITO-hMutated-clytin or pcDNA3Neo^−/CYTO-hMutated-clytin. • 48 h after transfection, the transfected cells were plated in 10×96 w/p in complete DMEM. • At confluence the 10×96 w/p were duplicated in 10 white plates. 3 1/2 hours before measurements, medium was replaced with 50 μl/well of tyrode (2 mM Ca^2+ and coelenterazine 10 μM). • Positive clones were selected evaluating: • First selection was done lysing cells with TRITON X-100. CCD camera conditions: low sensitivity, integration time 1 second reading for 5 seconds. • Five clones were chosen each diluted in 3×96 w/p. • At confluence the 15×96 w/p were duplicated in 15 white plates. […] CCD camera conditions: low sensitivity, integration time 1 second reading for 30 seconds for the ATP measurement followed by 30 seconds for TRITON X-100. • Four limiting dilutions of the best clone selected were performed, 0.3 cells per well in 10×96 w/p. • The final clone was chosen after the 4th LD selected with ATP 0.25 μM, coelenterazine 5 μM. • Complete optimization of the assay was performed on the best responding clone.
CHO cells are seeded at different cell densities in 384MTP (500, 750, 1,000, 1,500 cells/well) in growth media supplemented as above and measured with a CCD camera 24 hours and 48 hours after plating. […]

[2] = Recombinant photoprotein light emission upon 1 mM calcium injection; format: biochemical; conditions: 1 mM CaCl2 (FIG. 6)
Description: For the production of the recombinant protein we followed a small scale protein purification protocol under native conditions. Due to the presence of an N-terminal His tag in our constructs, we decided to purify the expressed proteins on Ni-NTA Spin Columns (Qiagen) following the suppliers' protocol.
In order to evaluate the response of the photoprotein to different calcium concentrations, 0.05 ng/well (96 MTP) of the recombinant protein were charged with Coelenterazine 10 μM overnight at 4° C.
After incubation, different concentrations of CaCl2 were injected and the light released was measured at the Ascent Luminoskan with an integration time of 20 ms for a total time of 10 seconds.
Recombinant photoproteins corresponding to some mutants were produced under native conditions following a small scale purification protocol.
In another experiment, the recombinant photoprotein 25N03b was compared to recombinant Aequorin.

[3] = In vitro transcription and translation, light emission upon calcium injection; format: biochemical; conditions: translation mixture, 5 μM CaCl2 injected, luminescence recorded 10 seconds; comparison among the 8 mutants (FIG. 2)
Description: Translation of the photoproteins was carried out in the rabbit reticulocyte cell-free system (TNT Quick coupled kit, Promega), following the general instructions of the supplier. 500 ng of DNA was used for each in vitro transcription/translation reaction mix. The reaction volume (10 μl) included 8 μl of TNT T7 Quick Master Mix, 1.6 μl of DNA, 0.2 μl of the Methionine buffer and 0.2 μl of Coelenterazine (0.5 mM). To this end, 5 μl from each sample of the translation mixture were tested for light emission by the injection of calcium solution and by measuring at the Ascent Luminoskan (Labsystems).
5 μl of the translation mixture were directly mixed with 95 μl of PBS solution in a 96 well plate which was mounted into the Luminometer (Berthold). To trigger photoprotein light emission, a 5 μM CaCl2 solution was injected into the well and luminescence recorded for 10 seconds.

| Molecule | light emission and sensitivity to Ca2+ in cells [1] | light emission recorded upon 1 mM CaCl2 injection, compared to recombinant Aequorin [2] | light emission of in vitro translated mutants upon calcium injection [3] |
| --- | --- | --- | --- |
| B1 | high light emission and sensitivity to Ca^2+ | – | – |
| B2 | – | surprisingly higher | best responding mutant |
